Test results published in patent publication US8889408B2, “Factor taking part in transcription control” (Sony Corporation, priority 2002, dated 2014).

Legend:
[1] = test system: glucocorticoid receptor (GR); assay: GR reporter CAT analysis in GR positive Hela cells; assay type: cell-based; conditions: co-expression of HDART; Hela cells; 10^−8 M dexamethasone
Procedure: Furthermore, the action of HDART on the transcription regulation by glucocorticoid receptor (GR) was analyzed by use of GR reporter plasmid in GR positive Hela cells. The transcription activity of a glucocorticoid response promoter was carried out in the same manner as in the experiment for the retinoic acid receptor except for the use of Hela cells and 10^−8 M of dexamethasone. The results of the measurement are shown in the same manner as shown above.
Next, the influence of the overexpression of N4TPR on the transcription from RAR or a glucocorticoid responsive promoter was checked. It will be noted that this test was made in the same manner as in the reporter analysis set out in Example 4, but using GFP-N4TPR expression vector (0, 0.3 and 0.5 μg).

[2] = test system: Gal4 reporter plasmid (pGal4-Luciferase); assay: Gal4 reporter (luciferase) promoter repression in NIH3T3 cells; assay type: cell-based
Description: Assuming that HDART takes part in more direct inhibition, it is expected that it has an autonomous repression function. To confirm the above expectation, in order that HDART can bind to DNA the full-length HDART cDNA was fused to Gal4 DNA binding region (GAL4DBD: a region having only a binding region with GAL4DNA and lacking a transcription control region) to analyze whether the transcription from the GAL4A promoter could be regulated within NIH3T3 cells.
More particularly, a Gal4 DBD-HDART plasmid capable of expressing a full-length HDART and Gal4 DBD fused protein was transfected in different amounts (0, 0.1, 0.3, and 0.5 μg) into NIH3T3 cells previously prepared to contain Gal4 reporter plasmid (pGal4-Luciferase). It should be noted that in order to make a uniform total amount of DNA used for the transfection, the amount of an expression vector was equalized to 0.5 μg by adding the appropriate amount of a vacant vector of Gal4 DBD in each transfection. 24 hours after the transfection, the expression activity (Luciferase activity) of reporter genes from the promoter was analyzed. The luciferase activity for each sample is indicated as a corrected value based on the luciferase activity obtained by introduction of a vacant vector alone as a reference (100%) (FIG. 8). It will be noted that the results of the analysis were indicated as an average of the results of three experiments, and a standard deviation is indicated as an error bar (FIG. 8A). Similar analyses were made using a different type of cell, U-205 cell, with Gal4 DBD-HDART (in an amount of 0 or 0.5 μg) (FIG. 8B).

HDAC4 = target: T1, HDAC4 (Homo sapiens, UniProt P56524); assay: Immunoprecipitation of GFP-HDART with Flag-HDAC in 293 cells; assay type: binding; conditions: co-transfected 293 cells; anti-FLAG immunoprecipitation
T1 construct: expressed in transfected cells; host or cells: 293 cells
T1 sequence (P56524 whole entry, species assumed): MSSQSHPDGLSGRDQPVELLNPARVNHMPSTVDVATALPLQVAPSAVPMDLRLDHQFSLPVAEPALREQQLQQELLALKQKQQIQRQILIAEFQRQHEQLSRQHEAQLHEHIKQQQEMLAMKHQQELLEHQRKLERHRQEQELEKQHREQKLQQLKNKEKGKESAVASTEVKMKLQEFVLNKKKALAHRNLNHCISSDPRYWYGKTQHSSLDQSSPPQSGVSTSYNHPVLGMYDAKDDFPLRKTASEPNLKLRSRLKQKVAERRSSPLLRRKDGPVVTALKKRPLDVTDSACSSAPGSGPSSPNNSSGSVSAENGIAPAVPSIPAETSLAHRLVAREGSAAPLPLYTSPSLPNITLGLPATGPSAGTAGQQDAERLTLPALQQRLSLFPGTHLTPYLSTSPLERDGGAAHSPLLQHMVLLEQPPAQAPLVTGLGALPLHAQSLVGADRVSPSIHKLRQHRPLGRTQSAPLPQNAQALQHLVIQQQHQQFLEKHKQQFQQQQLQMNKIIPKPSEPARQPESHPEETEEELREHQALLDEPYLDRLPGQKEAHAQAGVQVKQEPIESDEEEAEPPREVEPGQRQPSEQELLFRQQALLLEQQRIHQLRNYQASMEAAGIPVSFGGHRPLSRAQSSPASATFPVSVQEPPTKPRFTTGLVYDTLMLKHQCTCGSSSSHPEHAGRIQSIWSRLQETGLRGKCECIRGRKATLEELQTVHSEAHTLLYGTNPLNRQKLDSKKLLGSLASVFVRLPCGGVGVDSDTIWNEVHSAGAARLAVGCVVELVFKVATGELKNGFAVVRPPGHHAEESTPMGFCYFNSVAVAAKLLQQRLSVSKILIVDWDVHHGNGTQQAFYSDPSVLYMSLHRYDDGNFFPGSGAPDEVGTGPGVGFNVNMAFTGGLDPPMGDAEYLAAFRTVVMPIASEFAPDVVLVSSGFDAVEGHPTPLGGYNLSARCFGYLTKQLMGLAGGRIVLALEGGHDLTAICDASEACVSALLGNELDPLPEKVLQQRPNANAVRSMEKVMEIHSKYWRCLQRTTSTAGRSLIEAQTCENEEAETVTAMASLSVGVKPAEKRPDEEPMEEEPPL
Procedure: Flag-HDACs expression vectors capable of expressing different types of HDAC (1, 3, 4 or 6) and a GFP-HDART expression vector were, respectively, co-transfected with 293 cells in the same manner as in Example 2, and cell extracts were prepared 24 hours after the transfection. The respective cell extracts were incubated with an anti-Flag antibody, followed by immunoprecipitation. The resulting immunoprecipitate was isolated with SDS-PAGE and an isolated pattern was transferred to a membrane, followed by immunoblotting with use of an anti-Flag antibody or […]. For reference, in order to confirm the expression of GFP-HDART protein in the respective cells, individual samples prior to the immunoprecipitation were similarly developed with SDS-PAGE to conduct immunoblotting with use of an anti-GFP antibody. […] The kinds of HDAC's from the left side of the figure are as follows: lane 1, HDAC1; lane 3, HDAC3; lane 4, HDAC4; and lane 5, HDAC6. It will be noted that lane 2 is for the sample in which GFP-HDART alone was expressed.

Skip = target: T2, Skip (Homo sapiens, UniProt Q13573); assay: Yeast two-hybrid analysis (β-galactosidase) of HDART-Skip interaction; assay type: binding; set-up: expressed in transfected cells; host or cells: Saccharomyces cerevisiae Y190; conditions: Gal4DBD-HDART and deletion mutants with Gal4AD-Skip; β-galactosidase activity
T2 sequence (Q13573 1-536): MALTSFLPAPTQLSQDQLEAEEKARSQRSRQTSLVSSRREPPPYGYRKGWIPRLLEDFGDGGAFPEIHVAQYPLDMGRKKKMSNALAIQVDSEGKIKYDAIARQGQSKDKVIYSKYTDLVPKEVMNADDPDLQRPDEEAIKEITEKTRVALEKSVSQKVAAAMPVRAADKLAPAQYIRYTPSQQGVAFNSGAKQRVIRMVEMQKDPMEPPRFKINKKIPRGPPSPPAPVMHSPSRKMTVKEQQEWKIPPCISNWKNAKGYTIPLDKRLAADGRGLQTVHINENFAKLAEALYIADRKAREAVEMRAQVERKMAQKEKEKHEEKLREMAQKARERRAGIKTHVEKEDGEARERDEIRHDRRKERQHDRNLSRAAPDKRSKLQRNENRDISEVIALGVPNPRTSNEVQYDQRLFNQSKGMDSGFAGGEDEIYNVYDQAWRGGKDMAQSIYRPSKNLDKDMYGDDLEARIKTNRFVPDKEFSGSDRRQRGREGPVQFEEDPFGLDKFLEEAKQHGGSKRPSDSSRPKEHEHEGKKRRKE
Description: In order to isolate a protein that binds to this HDART, a yeast two-hybrid system was used. More particularly, a yeast MATCHMAKER two-hybrid analysis kit (Clontech) was used for the isolation. The ORF full length of HDART was inserted so that it and the Gal4 DNA binding domain reading frame were aligned in the same frame with each other within pAS-1 vector (Clontech). This bait plasmid was transformed into Saccharomyces cerevisiae Y190 along with pACT2 prey plasmid whose HeLa cDNA (Clontech) had been sub-cloned. The screening for clones into which both plasmids were introduced was carried out according to the kit protocol. […]
For mapping of regions on the Skip taking part in the interaction with HDART, a series of deletion mutations where various regions on Skip (N-terminus region (codon 1-220), nuclear hormone binding region (NHR binding, codon 221-388), and tran-activation region (TA, codon 438-536) were deleted, and the interaction between HDART and mutated Skip was analyzed according to the yeast two-hybrid analysis using Gal4DBD-HDART as set forth in Example 2. The results of the analysis are shown in FIG. 5A. The sign “+” indicated at the right of FIG. 5A indicates the observation of the interaction by the filter lift analysis of β-galactosidase activity, and the number of “+” indicates the relative intensity of the interaction. […]

interaction with HDAC4 (HDAC4): exhibits interaction | interaction with Skip (Skip): able to directly interact with Skip
B1: HDART: HDAC associated repressor TPR protein, 855 amino acids, SEQ ID NO: 2; transcription repressing factor, used as fusions or expressed from vector (protein, listed as Homo sapiens)
chain: MVVMARLSRPERPDLVFEEEDLPYEEEIMRNQFSVKCWLRYIEFKQGAPKPRLNQLYERALKLLPCSYKLWYRYLKARRAQVKHRCVTDPAYEDVNNCHERAFVFMHKMPRLWLDYCQFLMDQGRVTHTRRTFDRALRALPITQHSRIWPLYLRFLRSHPLPETAVRGYRRFLKLSPESAEEYIEYLKSSDRLDEAAQRLATVVNDERFVSKAGKSNYQLWHELCDLISQNPDKVQSLNVDAIIRGGLTRFTDQLGKLWCSLADYYIRSGHFEKARDVYEEAIRTVMTVRDFTQVFDSYAQFEESMIAAKMETASELGREEEDDVDLELRLARFEQLISRRPLLLNSVLLRQNPHHVHEWHKRVALHQGRPREIINTYTEAVQTVDPFKATGKPHTLWVAFAKFYEDNGQLDDARVILEKATKVNFKQVDDLASVWCQCGELELRHENYDEALRLLRKATALPARRAEYFDGSEPVQNRVYKSLKVWSMLADLEESLGTFQSTKAVYDRILDLRIATPQIVINYAMFLEEHKYFEESFKAYERGISLFKWPNVSDIWSTYLTKFIARYGGRKLERARDLFEQALDGCPPKYAKTLYLLYAQLEEEWGLARHAMAVYERATRAVEPAQQYDMFNIYIKRAAEIYGVTHTRGIYQKAIEVLSDEHAREMCLRFADMECKLGEIDRARAIYSFCSQICDPRTTGAFWQTWKDFEVRHGNEDTIKEMLRIRRSVQATYNTQVNFMASQMLKVSGSATGTVSDLAPGQSGMDDMKLLEQRAEQLAAEAERDQPLRAQSKILFVRSDASREELAELAQQVNPEEIQLGEDEDEDEMDLEPNEVRLEQQSVPAAVFGSLKED
activation of the reporter gene responding to glucocorticoid [1]: inhibited | promoter activity ([2]; Gal4 DBD-HDART plasmid 0, 0.1, 0.3, 0.5 μg, NIH-3T3 cells): significantly inhibits | lowering of the expression of luciferase ([2]; Gal4 DBD-HDART plasmid, highest concentration 0.5 μg, NIH-3T3 cells, 24 hours after transfection, vacant vector = 100%): 80% | expression inhibition of luciferase ([2]; HDART not having a GAL4 DNA binding region): not observed
